Experimental findings from publication PMC6292511 are described below.

In one assay the target is DMA-1::RFP (C. elegans). The assay can be described thus: single molecule pull-down.
Assay [1] addresses DMA-1::GFPnovo2 (C. elegans). Description: FRET or BRET.

For HPO-30::GFP (natural protein), in the assay with DMA-1::RFP (C. elegans), the percent of DMA-1::RFP speckles co-localized with HPO-30::GFP was 56.1%.
In the case of HPO-30::mCherry (natural protein), in assay [1], the fraction of DMA-1::GFPnovo2 bound to HPO-30::mCherry worked out at 30%.
